Measured values from patent US20240059769A1 (BIOLOJIC DESIGN, published 2024).

B1: BDG38.084 (antibody, V domains shown)
VH: QMQLVESGGGVVQPGRSLRLSCAASGFAFRTYGMHWVRQAPGKGLEWVAVIWDDGSNTHYADSVKGRFTITRDNSKNTLNLQMNSLRAEDTAVYYCVRAPQWYLTAEAFDLWGQGTMVTVSS
VL: SYVLTQPPSVSVAPGETATITCGGNLIGAYLVHWYQQKPGQAPVLVVYDDVDRPDRIPERFSGSNSGNTATLTISRVEAGDEADYYCQVWDHSTNTMVFGGGTKLTVL
B2: BDG38.105 (antibody, V domains shown)
VH: QMQLVESGGGVVQPGRSLTLSCAASGFEFRTYGMHWVRQAPGKGLEWVGVIWYDGSNTHYADSVKGRFTITRDNSKNTLNLQMNSLRVEDTAVYYCVRAPQWYLTAEAFDLWGQGTMVTVSS
VL: SYVLTQPPSVSVAPGETATITCGGNLIGARLVHWYQQKPGQAPVLVIYDDSDRPSRIPERFSGSNIGNTATLTIERVEAGDEADYYCQVWDYYSNSYVFGGGTKLTVL
B3: BDG38.119 (antibody, V domains shown)
VH: QMQLVESGGGVVQPGRSLRLSCAASGFEFRTYGMHWVRQAPGKGLEWVGVIWYDGSNTHYADSVKGRFTITRDNSKNTLNLQMNSLRAEDTAVYYCVRAPQWYLTAEAFDLWGQGTMVTVSS
VL: SYILTQPPSVSVAPGETATITCGGNLIGARLVHWYQQKPGQAPVLVIYDDSDRPSRIPERFSGSNIGNTATLTISRVEEGDEADYYCQVWDYSSNTYVFGGGTKLTVL
B4: BDG38.101 (antibody, V domains shown)
VH: QMQLVESGGGVVQPGRSLRLSCAASGFEFRTYGMHWVRQAPGKGLEWVGVIWYDGSATHYADSVKGRFTITRDNSKNTLNLQMNSLRVEDTAVYYCVRAPQWYLTAEAFDLWGQGTMVTVSS
VL: SYILTQPPSVSVAPGETATITCGGNLIGARLVHWYQQKPGQAPVLVIYDDSDRPSRIPERFSGSNIGNTATLTISRVEEGDEADYYCQVWDYSSNTYVFGGGTKLTVL
B5: BDG38.103 (antibody, V domains shown)
VH: QMQLVESGGGVVQPGRSLRLSCAASGFEFRTYGMHWVRQAPGKGLEWVGVIWYDGSNTHYADSVKGRFTITRDNSKNTLNLQMNSLRVEDTAVYYCVRAPQWYLTAEAFDLWGQGTMVTVSS
VL: SYVLTQPPSVSVAPGQTATITCGGNLIGARLVHWYQQKPGQAPVLVVYDDSDRPSRIPERFSGSNIGNTATLTISDVEEGDEADYYCQVWDYYSNSYVFGGGTKLTVL
B6: BDG38.088 (antibody, V domains shown)
VH: QMQLVESGGGVVQPGRSLTLSCAASGFEFRTYGMHWVRQAPGKGLEWVGVIWYDGSNTHYADSVKGRFTITRDNSKNTLNLQMNSLRVEDTAVYYCVRAPQWYLTAEAFDLWGQGTMVTVSS
VL: SYVLTQPPSVSVAPGETATITCGGNLIGARLVHWYQQKPGQAPVLVIYDDSDRPSRIPERFSGSNIGNTATLTISDVEAGDEADYYCQVWDYSSNTYVFGGGTKLTVL
B7: BDG38.121 (antibody, V domains shown)
VH: QMQLVESGGGVVQPGRSLRLSCAASGFEFRTYGMHWVRQAPGKGLEWVGVIWYDGSNTHYADSVKGRFTITRDNSKNTLNLQMNSLRAEDTAVYYCVRAPQWYLTAEAFDLWGQGTMVTVSS
VL: SYILTQPPSVSVAPGETATITCGGNLIGARLVHWYQQKPGQAPVLVIYDDSDRPSRIPERFSGSNIGNTATLTISRVEAGDEADYYCQVWDYSSNTYVFGGGTKLTVL
B8: BDG38.085 (antibody, V domains shown)
VH: QMQLVESGGGVVQPGRSLTLSCAASGFEFRTYGMHWVRQAPGKGLEWVGVIWYDGSNTHYADSVKGRFTITRDNSKNTLNLQMNSLRVEDTAVYYCVRAPQWYLTAEAFDLWGQGTMVTVSS
VL: SYVLTQPPSVSVAPGETATITCGGNLIGARLVHWYQQKPGQAPVLVIYDDSDRPSRIPERFSGSNIGNTATLTIERVEAGDEADYYCQVWDYSSNSYVFGGGTKLTVL
B9: BDG38.100 (antibody, V domains shown)
VH: QMQLVESGGGVVQPGRSLRLSCAASGFEFRTYGMHWVRQAPGKGLEWVGVIWYDGSNTHYADSVKGRFTITRDNSKNTLNLQMNSLRVEDTAVYYCVRAPQWYLTAEAFDLWGQGTMVTVSS
VL: SYVLTQPPSVSVAPGETARITCGGNLIGARLVHWYQQKPGQAPVLVIYDDSDRPSRIPERFSGSNIGNTATLTIERVEEGDEADYYCQVWDYYSNSYVFGGGTKLTVL
B10: BDG38.109 (antibody, V domains shown)
VH: QMQLVESGGGVVQPGRSLRLSCAASGFEFRTYGMHWVRQAPGKGLEWVGVIWYDGSNTHYADSVKGRFTITRDNSKNTLNLQMNSLRAEDTAVYYCVRAPQWYLTAEAFDLWGQGTMVTVSS
VL: SYILTQPPSVSVAPGQTATITCGGNLIGARLVHWYQQKPGQAPVLVIYDDSDRPSRIPERFSGSNIGNTATLTIERVEEGDEADYYCQVWDYSSNSYVFGGGTKLTVL
B11: BDG38.089 (antibody, V domains shown)
VH: QMQLVESGGGVVQPGRSLRLSCAASGFEFRTYGMHWVRQAPGKGLEWVGVIWYDGSATHYADSVKGRFTITRDNSKNTLNLQMNSLRVEDTAVYYCVRAPQWYLTAEAFDLWGQGTMVTVSS
VL: SYILTQPPSVSVAPGETATITCGGNLIGARLVHWYQQKPGQAPVLVIYDDSDRPSRIPERFSGSNIGNTATLTISRVEEGDEADYYCQVWDHSSNHYVFGGGTKLTVL
B12: BDG38.114 (antibody, V domains shown)
VH: QMQLVESGGGVVQPGRSLTLSCAASGFEFRTYGMHWVRQAPGKGLEWVGVIWYDGSNTHYADSVKGRFTITRDNSKNTLNLQMNSLRVEDTAVYYCVRAPQWYLTAEAFDLWGQGTMVTVSS
VL: SYILTQPPSVSVAPGQTATITCGGNLIGARLVHWYQQKPGQAPVLVIYDDSDRPSRIPERFSGSNIGNTATLTIEDVEEGDEADYYCQVWDYSANSYVFGGGTKLTVL
B13: BDG38.104 (antibody, V domains shown)
VH: QMQLVESGGGVVQPGRSLTLSCAASGFEFRTYGMHWVRQAPGKGLEWVGVIWYDGSATHYADSVKGRFTITRDNSKNTLNLQMNSLRAEDTAVYYCVRAPQWYLTAEAFDLWGQGTMVTVSS
VL: SYILTQPPSVSVAPGETATITCGGNLIGARLVHWYQQKPGQAPVLVIYDDSDRPSRIPERFSGSNIGNTATLTIEDVEEGDEADYYCQVWDYYSDSYVFGGGTKLTVL
B14: BDG38.111 (antibody, V domains shown)
VH: QMQLVESGGGVVQPGRSLTLSCAASGFEFRTYGMHWVRQAPGKGLEWVGVIWDDGSATHYADSVKGRFTITRDNSKNTLNLQMNSLRVEDTAVYYCVRAPQWYLTAEAFDLWGQGTMVTVSS
VL: SYVLTQPPSVSVAPGETATITCGGALIGARLVHWYQQKPGQAPVLVVYDDSDRPSRIPERFSGSNIGNTATLTISRVEAGDEADYYCQVWDYYANSYVFGGGTKLTVL
B15: BDG38.093 (antibody, V domains shown)
VH: QMQLVESGGGVVQPGRSLTLSCAASGFEFRTYGMHWVRQAPGKGLEWVGVIWYDGSNTHYADSVKGRFTITRDNSKNTLNLQMNSLRAEDTAVYYCVRAPQWYLTAEAFDLWGQGTMVTVSS
VL: SYVLTQPPSVSVAPGQTARITCGGNLIGARLVHWYQQKPGQAPVLVIYDDSDRPSRIPERFSGSNIGNTATLTIERVEEGDEADYYCQVWDYSADSYVFGGGTKLTVL
B16: BDG38.095 (antibody, V domains shown)
VH: QMQLVESGGGVVQPGRSLTLSCAASGFEFRTYGMHWVRQAPGKGLEWVGVIWYDGSATHYADSVKGRFTITRDNSKNTLNLQMNSLRAEDTAVYYCVRAPQWYLTAEAFDLWGQGTMVTVSS
VL: SYVLTQPPSVSVAPGQTATITCGGALIGSRLVHWYQQKPGQAPVLVVYDDSDRPSRIPERFSGSNIGNTATLTISRVEEGDEADYYCQVWDYYSDSYVFGGGTKLTVL
B17: BDG38.099 (antibody, V domains shown)
VH: QMQLVESGGGVVQPGRSLRLSCAASGFEFRTYGMHWVRQAPGKGLEWVGVIWYDGSNTHYADSVKGRFTITRDNSKNTLNLQMNSLRAEDTAVYYCVRAPQWYLTAEAFDLWGQGTMVTVSS
VL: SYILTQPPSVSVAPGETARITCGGNLIGARLVHWYQQKPGQAPVLVIYDDSDRPSRIPERFSGSNIGNTATLTIEDVEEGDEADYYCQVWDYSSDSYVFGGGTKLTVL
B18: BDG38.102 (antibody, V domains shown)
VH: QMQLVESGGGVVQPGRSLRLSCAASGFEFRTYGMHWVRQAPGKGLEWVGVIWYDGSNTHYADSVKGRFTITRDNSKNTLNLQMNSLRAEDTAVYYCVRAPQWYLTAEAFDLWGQGTMVTVSS
VL: SYVLTQPPSVSVAPGETATITCGGNLIGARLVHWYQQKPGQAPVLVVYDDSDRPSRIPERFSGSNIGNTATLTIEDVEAGDEADYYCQVWDYSSNTYVFGGGTKLTVL
B19: BDG38.097 (antibody, V domains shown)
VH: QMQLVESGGGVVQPGRSLRLSCAASGFEFRTYGMHWVRQAPGKGLEWLGVIWYDGSATHYADSVKGRFTITRDNSKNTLNLQMNSLRAEDTAVYYCVRAPQWYLTAEAFDLWGQGTMVTVSS
VL: SYILTQPPSVSVAPGETATITCGGNLIGARLVHWYQQKPGQAPVLVIYDDSDRPSRIPERFSGSNIGNTATLTIERVEEGDEADYYCQVWDYYSDHYVFGGGTKLTVL
B20: BDG38.113 (antibody, V domains shown)
VH: QMQLVESGGGVVQPGRSLTLSCAASGFEFRTYGMHWVRQAPGKGLEWVGVIWYDGSNTHYADSVKGRFTITRDNSKNTLNLQMNSLRAEDTAVYYCVRAPQWYLTAEAFDLWGQGTMVTVSS
VL: SYVLTQPPSVSVAPGETATITCGGNLIGARLVHWYQQKPGQAPVLVIYDDSDRPSRIPERFSGSNIGNTATLTIEDVEEGDEADYYCQVWDYSSDSYVFGGGTKLTVL
B21: BDG38.108 (antibody, V domains shown)
VH: QMQLVESGGGVVQPGRSLRLSCAASGFEFRTYGMHWVRQAPGKGLEWVGVIWYDGSNTHYADSVKGRFTITRDNSKNTLNLQMNSLRAEDTAVYYCVRAPQWYLTAEAFDLWGQGTMVTVSS
VL: SYILTQPPSVSVAPGETATITCGGNLIGARLVHWYQQKPGQAPVLVIYDDSDRPSRIPERFSGSNIGNTATLTISDVEEGDEADYYCQVWDYYSNSYVFGGGTKLTVL

Each binder was assayed against recombinant human IL-13 (human, UniProt P35225 35-146) (assay: cell-based or functional assay).
Sequence of recombinant human IL-13 (P35225 35-146 limits assumed): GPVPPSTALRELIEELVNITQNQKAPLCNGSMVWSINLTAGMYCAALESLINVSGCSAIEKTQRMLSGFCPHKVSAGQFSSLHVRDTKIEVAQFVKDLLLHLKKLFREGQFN
With B1 the “HEK-IL-13 [nM] (IC50, STAT6 reporter)” value was 0.0419 nM.
For B2, the “HEK-IL-13 [nM] (IC50, STAT6 reporter)” value was 0.134 nM.
With B3 the “HEK-IL-13 [nM] (IC50, STAT6 reporter)” value was 0.0662 nM.
With B4 the “HEK-IL-13 [nM] (IC50, STAT6 reporter)” value was 0.0403 nM.
With B5 the “HEK-IL-13 [nM] (IC50, STAT6 reporter)” value was 0.084 nM.
In the case of B6, the “HEK-IL-13 [nM] (IC50, STAT6 reporter)” value is reported as 0.0486 nM.
B7 was tested, and the “HEK-IL-13 [nM] (IC50, STAT6 reporter)” value was 0.0562 nM.
With B8 the “HEK-IL-13 [nM] (IC50, STAT6 reporter)” value was 0.0236 nM.
In the case of B9, the “HEK-IL-13 [nM] (IC50, STAT6 reporter)” value is reported as 0.0801 nM.
For B10, the “HEK-IL-13 [nM] (IC50, STAT6 reporter)” value was 0.063 nM.
With B11 the “HEK-IL-13 [nM] (IC50, STAT6 reporter)” value was 0.075 nM.
For B12, the “HEK-IL-13 [nM] (IC50, STAT6 reporter)” value was 0.0989 nM.
With B13 the “HEK-IL-13 [nM] (IC50, STAT6 reporter)” value was 0.0381 nM.
In the case of B14, the “HEK-IL-13 [nM] (IC50, STAT6 reporter)” value is reported as 0.0545 nM.
In the case of B15, the “HEK-IL-13 [nM] (IC50, STAT6 reporter)” value is reported as 0.0402 nM.
For B16, the “HEK-IL-13 [nM] (IC50, STAT6 reporter)” value was 0.0822 nM.
B17 was tested, and the “HEK-IL-13 [nM] (IC50, STAT6 reporter)” value was 0.0601 nM.
In the case of B18, the “HEK-IL-13 [nM] (IC50, STAT6 reporter)” value is reported as 0.0421 nM.
With B19 the “HEK-IL-13 [nM] (IC50, STAT6 reporter)” value was 0.0464 nM.
With B20 the “HEK-IL-13 [nM] (IC50, STAT6 reporter)” value was 0.0284 nM.
For B21, the “HEK-IL-13 [nM] (IC50, STAT6 reporter)” value was 0.0659 nM.
